# Results reported in paper PMC11864512.
# Biological target: Ikoma lyssavirus glycoprotein ectodomain (IKOV-G-ecto) (Ikoma lyssavirus (IKOV))
# Assay: crystal structure
substance,measurement,value
Ikoma lyssavirus glycoprotein ectodomain (IKOV-G-ecto) (domain or fragment),stoichiometry N,3
